Experimental data: PMC2774812 (Journal of molecular biology, 2009)
Changes are numbered by the printed parent chain. Names and notes keep the numbering of the source.

B1: brome mosaic virus (BMV) capsid protein, wild type (natural protein)
chain: STSGTGKMTRAQRRAAARRNRWTARVQPVIVEPLAAGQGKAIKAIAGYSISKWEASSDAITAKATNAMSITLPHELSSEKNKELKVGRVLLWLGLLPSVAGRIKACVAEKQAQAEAAFQVALAVADSSKEVVAAMYTDAFRGATLGDLLNLQIYLYASEAVPAKAVVVHLEVEHVRPTFDDFFTPVYR
B2: brome mosaic virus (BMV) capsid protein R142A (natural protein)
chain: B1 chain with R141A
B3: brome mosaic virus (BMV) capsid protein D148A (natural protein)
chain: B1 chain with D147A

Molecular target: the molecule itself

Protein	binding result
B1	binds
B2	binds
B3	binds
